Experimental data published in publication PMC4592220, “Geminivirus Activates [sequence] LEAVES 2 to Accelerate Cytoplasmic DCP2-Mediated mRNA Turnover and Weakens RNA Silencing in Arabidopsis” (PLoS Pathogens, 2015).

B1: His-AS2 (… LEAVES 2) (natural protein)
chain: MASSSTNSPCAACKFLRRKCQPECVFAPYFPPDQPQKFANVHKVFGASNVTKLLNELHPSQREDAVNSLAYEADMRLRDPVYGCVGVISLLQHQLRQLQIDLSCAKSELSKYQSLGILAATHQSLGINLLAGAADGTATAVRDHYHHHQFFPREQMFGGLDVPAGNNYDGGILAIGQITQFQQPRAAAGDDGRRTVDPS
notes: full-length cDNA; The methods say the yeast SUMO tag was used to improve AS2 solubility; also called WT AS2
B2: GST-AS2 (… LEAVES 2) (natural protein)
chain: B1 chain
notes: full-length cDNA

Legend:
GST-AS2 (… LEAVES 2) = molecular target: B2; experiment: pull-down; 2 ug of GST/MBP/His/His-SUMO fusion proteins; binding buffer 50 mM Tris-HCl pH 7.5, 100 mM NaCl, 0.25% Triton X-100, 35 mM beta-mercaptoethanol, 2 h at 4 C, then glutathione sepharose 4B overnight; 6 washes; Western blot with anti-His, anti-GST or anti-MBP; settings: both partners purified
DCP2, recombinant = molecular target: T1, DCP2, recombinant (Arabidopsis thaliana, UniProt Q8GW31 1-373); experiment: as above; settings: both partners purified
T1 construct: mRNA decapping enzyme DCP2, Arabidopsis; full-length cDNA
T1 sequence: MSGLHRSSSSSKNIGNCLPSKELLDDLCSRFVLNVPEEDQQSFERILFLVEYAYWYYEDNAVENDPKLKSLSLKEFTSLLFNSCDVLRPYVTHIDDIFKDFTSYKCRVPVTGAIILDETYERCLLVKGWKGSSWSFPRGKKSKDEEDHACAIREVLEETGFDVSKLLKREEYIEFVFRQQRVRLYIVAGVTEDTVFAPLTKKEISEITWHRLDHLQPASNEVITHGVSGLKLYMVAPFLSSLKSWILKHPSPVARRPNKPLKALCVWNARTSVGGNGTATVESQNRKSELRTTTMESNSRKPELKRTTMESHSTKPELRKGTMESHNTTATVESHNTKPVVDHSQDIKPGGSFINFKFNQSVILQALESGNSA

## B1
GST-AS2 (… LEAVES 2)
  binding result: binds

## B2
DCP2, recombinant
  binding result: binds
